Data taken from article PMC9663308, “AAA+ protease-adaptor structures reveal altered conformations and ring specialization” (Nature Structural & Molecular Biology, 2022).
Ends that are not written are not given here.

B1: ClpA (laboratory 'wild-type' ClpA carrying M169T), hexamer (enzyme, E. coli, UniProt P0ABH9 1-758, looked up)
chain: MLNQELELSLNMAFARAREHRHEFMTVEHLLLALLSNPSAREALEACSVDLVALRQELEAFIEQTTPVLPASEEERDTQPTLSFQRVLQRAVFHVQSSGRNEVTGANVLVAIFSEQESQAAYLLRKHEVSRLDVVNFISHGTRKDEPTQSSDPGSQPNSEEQAGGEERTENFTTNLNQLARVGGIDPLIGREKELERAIQVLCRRRKNNPLLVGESGVGKTAIAEGLAWRIVQGDVPEVMADCTIYSLDIGSLLAGTKYRGDFEKRFKALLKQLEQDTNSILFIDEIHTIIGAGAASGGQVDAANLIKPLLSSGKIRVIGSTTYQEFSNIFEKDRALARRFQKIDITEPSIEETVQIINGLKPKYEAHHDVRYTAKAVRAAVELAVKYINDRHLPDKAIDVIDEAGARARLMPVSKRKKTVNVADIESVVARIARIPEKSVSQSDRDTLKNLGDRLKMLVFGQDKAIEALTEAIKMARAGLGHEHKPVGSFLFAGPTGVGKTEVTVQLSKALGIELLRFDMSEYMERHTVSRLIGAPPGYVGFDQGGLLTDAVIKHPHAVLLLDEIEKAHPDVFNILLQVMDNGTLTDNNGRKADFRNVVLVMTTNAGVRETERKSIGLIHQDNSTDAMEEIKKIFTPEFRNRLDNIIWFDHLSTDVIHQVVDKFIVELQVQLDQKGVSLEVSQEARNWLAEKGYDRAMGARPMARVIQDNLKKPLANELLFGSLVDGGQVTVALDKEKNELTYGFQSAQKHKAEAAH
notes: ClpA, E. coli, AAA+ unfoldase with D1 and D2 modules; full-length with the M169T substitution that helps overexpression; also called ClpA6; WTClpA
B2: LLYVQRDSKEC-fluorescein N-degron synthetic peptide (peptide)
peptide: LLYVQRDSKEC-fluorescein
modifications: not fully specified (residue 11); printed as LLYVQRDSKEC-fluorescein
notes: synthetic N-degron peptide, molecular weight 1779.9 g/mol; also called fluorescein-labeled N-degron peptide; N-degron peptide; source: synthetic peptide (21st Century Biochemicals)
B3: ClpS adaptor (natural protein, E. coli)
chain: MGKTNDWLDFDQLAEEKVRDALKPPSMYKVILVNDDYTPMEFVIDVLQKFFSYDVERATQLMLAVHYQGKAICGVFTAEVAETKVAMVNKYARENEHPLLCTLEKA
notes: ClpS, E. coli, ~10 kDa; N-terminal extension (NTE) res; 2–26 and core domain res; 27–106; The NTE (res. 2–26) and the core (res. 27–106) are both spoken of, so the whole protein is likely; also called native ClpS; source: E. coli BL21(DE3), purified as described for His6-SUMO-fusion proteins
B4: ClpP-His6, 14-mer (enzyme)
chain: not shown
notes: ClpP peptidase, E. coli; The atomic models hold one heptameric ClpP ring; also called ClpP14; ClpP7 ring; copies: 14

Experiments:
[1] = target: B4; assay: cryo-EM structure; ClpA6 (4 µM), ClpP14 (8 µM), ClpS (13 µM) and YLFVQELA-GFP (13 µM) mixed in assembly buffer (50 mM HEPES-KOH pH 7.5, 300 mM KCl, 5 mM MgCl2, 2 mM TCEP, 4% glycerol, 2 mM ATPγS), 5 min at 25 °C; largest complex from Superdex-200 taken for single-particle cryo-EM; conditions: both partners purified
[2] = target: the molecule itself; assay: as above
[3] = target: B3; assay: fluorescence polarisation; fluorescence anisotropy at equilibrium; ClpS alone (1.25–30 µM) titrated against 100 nM …-fluorescein; 30 °C, HO buffer, 2 mM ATPγS; conditions: both partners purified
[4] = target: B1; assay: cryo-EM structure; ClpA6 (4 µM), ClpP14 (8 µM), ClpS (13 µM) and YLFVQELA-GFP (13 µM) mixed in assembly buffer (50 mM HEPES-KOH pH 7.5, 300 mM KCl, 5 mM MgCl2, 2 mM TCEP, 4% glycerol, 2 mM ATPγS), 5 min at 25 °C; largest complex from Superdex-200 taken for single-particle cryo-EM; conditions: both partners purified

| Binder | stoichiometry N [1] | stoichiometry N [2] | binding result [3] | binding result [4] |
| --- | --- | --- | --- | --- |
| B1 | 2 ClpA hexamers per ClpP 14-mer | 6 | – | – |
| B2 | – | – | binds | – |
| B3 | – | – | – | binds |
| B4 | – | 14 | – | binds |
